Data taken from US20130202609.

Biological target: interleukin-8 (IL-8; CXCL8)

B1: GAS57 double mutant D151A+S617A, His-tagged (protein)
chain: ADELSTMSEPTITNHAQQQAQHLTNTELSSAESKSQDTSQITLKTNREKEQSQDLVSEPTTTELADTDAASMANTGSDATQKSASLPPVNTDVHDWVKTKGAWDKGYKGQGKVVAVIATGIDPAHQSMRISDVSTAKVKSKEDMLARQKAAGINYGSWINDKVVFAHNYVENSDNIKENQFEDFDEDWENFEFDAEAEPKAIKKHKIYRPQSTQAPKETVIKTEETDGSHDIDWTQTDDDTKYESHGMHVTGIVAGNSKEAAATGERFLGIAPEAQVMFMRVFANDIMGSAESLFIKAIEDAVALGADVINLSLGTANGAQLSGSKPLMEAIEKAKKAGVSVVVAAGNERVYGSDHDDPLATNPDYGLVGSPSTGRTPTSVAAINSKWVIQRLMTVKELENRADLNHGKAIYSESVDFKDIKDSLGYDKSHQFAYVKESTDAGYNAQDVKGKIALIERDPNKTYDEMIALAKKHGALGVLIFNNKPGQSNRSMRLTANGMGIPSAFISHEFGKAMSQLNGNGTGSLEFDSVVSKAPSQKGNEMNHFSNWGLTSDGYLKPDITAPGGDIYSTYNDNHYGSQTGTAMASPQIAGASLLVKQYLEKTQPNLPKEKIADIVKNLLMSNAQIHVNPETKTTTSPRQQGAGLLNIDGAVTSGLYVTGKDNYGSISLGNITDTMTFDVTVHNLSNKDKTLRYDTELLTDHVDPQKGRFTLTSHSLKTYQGGEVTVPANGKVTVRVTMDVSQFTKELTKQMPNGYYLEGFVRFRDSQDDQLNRVNIPFVGFKGQFENLAVAEESIYRLKSQGKTGFYFDESGPKDDIYVGKHFTGLVTLGSETNVSTKTISDNGLHTLGTFKNADGKFILEKNAQGNPVLAISPNGDNNQDFAAFKGVFLRKYQGLKASVYHASDKEHKNPLWVSPESFKGDKNFNSDIRFAKSTTLLGTAFSGKSLTGAELPDGHYHYVVSYYPDVVGAKRQEMTFDMILDRQKPVLSQATFDPETNRFKPEPLKDRGLAGVRKDSVFYLERKDNKPYTVTINDSYKYVSVEDNKTFVERQADGSFILPLDKAKLGDFYYMVEDFAGNVAIAKLGDHLPQTLGKTPIKLKLTDGNYQTKETLKDNLEMTQSDTGLVTNQAQLAVVHRNQPQSQLTKMNQDFFISPNEDGNKDFVAFKGLKNNVYNDLTVNVYAKDDHQKQTPIWSSQAGASVSAIESTAWYGITARGSKVMPGDYQYVVTYRDEHGKEHQKQYTISVNDKKPMITQGRFDTINGVDHFTPDKTKALDSSGIVREEVFYLAKKNGRKFDVTEGKDGITVSDNKVYIPKNPDGSYTISKRDGVTLSDYYYLVEDRAGNVSFATLRDLKAVGKDKAVVNFGLDLPVPEDKQIVNFTYLVRDADGKPIENLEYYNNSGNSLILPYGKYTVELLTYDTNAAKLESDKIVSFTLSADNNFQQVTFKITMLATSQITAHFDHLLPEGSRVSLKTAQDQLIPLEQSLYVPKAYGKTVQEGTYEVVVSLPKGYRIEGNTKVNTLPNEVHELSLRLVKVGDASDSTGDHKVMSKNNSQALTASATPT
  IL-8 cleavage, SDS-PAGE with silver staining, 24 hours: unable to cleave IL-8, even at a 100-fold higher concentration than wild-type GAS57
  uncleaved IL-8 after 24 h incubation, ELISA: the mutants release 100% of uncleaved IL-8 after 24 h incubation
